Data published in IntAct's records for PubMed 26305884.

target: ccyl1_mouse Ccnyl1 (UniProt D3YUJ3)
Sequence (D3YUJ3 whole entry): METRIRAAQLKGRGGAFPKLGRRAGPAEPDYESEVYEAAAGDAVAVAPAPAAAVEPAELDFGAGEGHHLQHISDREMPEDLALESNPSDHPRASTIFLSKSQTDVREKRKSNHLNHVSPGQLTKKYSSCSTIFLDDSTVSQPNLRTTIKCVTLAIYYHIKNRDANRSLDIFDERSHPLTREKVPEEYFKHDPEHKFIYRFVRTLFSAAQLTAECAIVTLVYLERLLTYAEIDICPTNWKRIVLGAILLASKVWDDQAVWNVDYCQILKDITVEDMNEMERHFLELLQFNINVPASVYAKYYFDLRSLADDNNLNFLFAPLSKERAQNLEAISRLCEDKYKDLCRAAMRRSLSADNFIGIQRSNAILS

Chain of Cyclin-dependent kinase 16 (Mus musculus), Q04735 S153D (Q04735 whole entry S153D): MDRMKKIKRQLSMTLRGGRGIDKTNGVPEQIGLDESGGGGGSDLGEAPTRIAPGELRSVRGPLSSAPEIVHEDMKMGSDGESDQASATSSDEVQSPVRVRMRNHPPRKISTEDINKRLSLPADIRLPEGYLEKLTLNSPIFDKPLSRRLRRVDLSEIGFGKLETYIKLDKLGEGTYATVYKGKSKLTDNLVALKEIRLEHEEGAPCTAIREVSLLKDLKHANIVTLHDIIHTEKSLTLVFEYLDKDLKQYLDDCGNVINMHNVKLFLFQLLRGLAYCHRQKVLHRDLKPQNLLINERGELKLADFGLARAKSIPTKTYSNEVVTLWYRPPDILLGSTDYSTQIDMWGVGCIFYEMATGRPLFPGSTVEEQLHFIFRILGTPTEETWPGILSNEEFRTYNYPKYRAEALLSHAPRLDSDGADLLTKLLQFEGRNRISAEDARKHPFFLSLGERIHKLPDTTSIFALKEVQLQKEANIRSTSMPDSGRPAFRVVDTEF
Chain of Cyclin-dependent kinase 16 (Mus musculus), Q04735 S146A (Q04735 whole entry S146A): as the sequence (Q04735 whole entry S153D) above, with S146A, D153S counted along it
Chain of Cyclin-dependent kinase 16 (Mus musculus), Q04735 S110D (Q04735 whole entry S110D): as the sequence (Q04735 whole entry S153D) above, with S110D, D153S counted along it
Chain of Cyclin-dependent kinase 16 (Mus musculus), Q04735 S78A (Q04735 whole entry S78A): as the sequence (Q04735 whole entry S153D) above, with S78A, D153S counted along it
Chain of Cyclin-dependent kinase 16 (Mus musculus), Q04735 S153A (Q04735 whole entry S153A): as the sequence (Q04735 whole entry S153D) above, with D153A counted along it
Chain of Cyclin-dependent kinase 16 (Mus musculus), Q04735 S110A (Q04735 whole entry S110A): as the sequence (Q04735 whole entry S153D) above, with S110A, D153S counted along it
Chain of Cyclin-dependent kinase 16 (Mus musculus), Q04735 S146D (Q04735 whole entry S146D): as the sequence (Q04735 whole entry S153D) above, with S146D, D153S counted along it
Chain of Cyclin-dependent kinase 16 (Mus musculus), Q04735 S119A (Q04735 whole entry S119A): as the sequence (Q04735 whole entry S153D) above, with S119A, D153S counted along it

| Substance | effect of a mutation on the interaction |
| --- | --- |
| Cyclin-dependent kinase 16 (Mus musculus), Q04735 S146D | disrupting interaction strength |
| Cyclin-dependent kinase 16 (Mus musculus), Q04735 S153A | increasing interaction strength |
| Cyclin-dependent kinase 16 (Mus musculus), Q04735 S153D | decreasing interaction strength |
| Cyclin-dependent kinase 16 (Mus musculus), Q04735 S78A | increasing interaction strength |
| Cyclin-dependent kinase 16 (Mus musculus), Q04735 T175A | decreasing interaction strength |
| Cyclin-dependent kinase 16 (Mus musculus), Q04735 S110A | decreasing interaction strength |

More lines, now with the values ahead:

| effect of a mutation on the interaction | Substance |
| --- | --- |
| decreasing interaction strength | Cyclin-dependent kinase 16 (Mus musculus), Q04735 S110D |
| disrupting interaction strength | Cyclin-dependent kinase 16 (Mus musculus), Q04735 P205A;T207A;R210A;E211A |
| disrupting interaction strength | Cyclin-dependent kinase 16 (Mus musculus), Q04735 S146A |
| decreasing interaction strength | Cyclin-dependent kinase 16 (Mus musculus), Q04735 S119A |
| increasing interaction strength | Cyclin-dependent kinase 16 (Mus musculus), Q04735 T175D |
